{"source": "the Human Domainome abundance scans (Beltran et al. 2025)", "parents": {"B1": {"name": "Histone H1t, residues 44 to 112; numbered along this chain, P22492 (parent)", "chain": "VSKLITEALSVSQERVGMSLVALKKALAAAGYDVEKNNSRIKLSLKSLVNKGILVQTRGTGASGSFKLS"}}, "note": "± gives the uncertainty stated by the source.", "data": [{"variants_of": "B1", "test": "abundance fitness (aPCA) (normalised: wild type 0, dead -1); higher = more abundant; growth selection in yeast, the domain comes from the species named", "settings": "Homo sapiens", "values": [{"variant": "A30W", "abundance fitness": "-0.15 ± 0.041"}, {"variant": "K25F", "abundance fitness": "-0.892 ± 0.064"}, {"variant": "K25M", "abundance fitness": "-0.785 ± 0.057"}, {"variant": "K25N", "abundance fitness": "-0.171 ± 0.061"}, {"variant": "K25L", "abundance fitness": "-0.862 ± 0.042"}, {"variant": "K25V", "abundance fitness": "-0.627 ± 0.032"}, {"variant": "M18R", "abundance fitness": "0.107 ± 0.072"}, {"variant": "M18Y", "abundance fitness": "-0.487 ± 0.076"}, {"variant": "M18T", "abundance fitness": "-0.006 ± 0.08"}, {"variant": "M18E", "abundance fitness": "-0.108 ± 0.055"}, {"variant": "M18G", "abundance fitness": "-0.129 ± 0.045"}, {"variant": "M18W", "abundance fitness": "-0.374 ± 0.049"}, {"variant": "R15V", "abundance fitness": "-0.45 ± 0.1"}, {"variant": "R15M", "abundance fitness": "-0.364 ± 0.053"}, {"variant": "R15H", "abundance fitness": "-0.061 ± 0.13"}, {"variant": "R15E", "abundance fitness": "0.084 ± 0.091"}, {"variant": "R15G", "abundance fitness": "-0.15 ± 0.48"}, {"variant": "V11C", "abundance fitness": "-0.077 ± 0.037"}, {"variant": "V11M", "abundance fitness": "-0.255 ± 0.056"}, {"variant": "V11Y", "abundance fitness": "-0.027 ± 0.043"}, {"variant": "V11E", "abundance fitness": "-0.106 ± 0.063"}, {"variant": "V11I", "abundance fitness": "-0.185 ± 0.058"}, {"variant": "V1S", "abundance fitness": "-0.512 ± 0.11"}, {"variant": "V1N", "abundance fitness": "-0.557 ± 0.1"}, {"variant": "V1I", "abundance fitness": "0.005 ± 0.072"}, {"variant": "V1F", "abundance fitness": "-0.054 ± 0.097"}, {"variant": "V49W", "abundance fitness": "-0.495 ± 0.34"}, {"variant": "V49H", "abundance fitness": "-0.432 ± 0.083"}, {"variant": "V49S", "abundance fitness": "-0.423 ± 0.074"}, {"variant": "V49D", "abundance fitness": "-0.416 ± 0.48"}, {"variant": "V49A", "abundance fitness": "-0.336 ± 0.3"}, {"variant": "V49R", "abundance fitness": "-0.262 ± 0.2"}, {"variant": "Q13W", "abundance fitness": "-0.471 ± 0.091"}, {"variant": "Q13L", "abundance fitness": "-0.33 ± 0.033"}, {"variant": "Q13R", "abundance fitness": "-0.093 ± 0.062"}, {"variant": "Q13T", "abundance fitness": "-0.128 ± 0.057"}, {"variant": "G17I", "abundance fitness": "-0.254 ± 0.047"}, {"variant": "G17F", "abundance fitness": "-0.465 ± 0.041"}, {"variant": "G17S", "abundance fitness": "-0.24 ± 0.043"}, {"variant": "G17Q", "abundance fitness": "-0.075 ± 0.059"}, {"variant": "G17C", "abundance fitness": "-0.17 ± 0.062"}, {"variant": "G17V", "abundance fitness": "-0.1 ± 0.053"}, {"variant": "L48N", "abundance fitness": "-0.775 ± 0.094"}, {"variant": "L48P", "abundance fitness": "-0.873 ± 0.074"}, {"variant": "L48R", "abundance fitness": "-0.864 ± 0.1"}, {"variant": "L48I", "abundance fitness": "-0.564 ± 0.059"}, {"variant": "L48G", "abundance fitness": "-0.894 ± 0.12"}, {"variant": "S63D", "abundance fitness": "0.029 ± 0.08"}, {"variant": "S63R", "abundance fitness": "-0.133 ± 0.044"}, {"variant": "S63V", "abundance fitness": "-0.006 ± 0.046"}, {"variant": "S63N", "abundance fitness": "-0.113 ± 0.083"}, {"variant": "S63Q", "abundance fitness": "0.057 ± 0.04"}, {"variant": "R40S", "abundance fitness": "-0.404 ± 0.12"}, {"variant": "R40P", "abundance fitness": "-0.444 ± 0.03"}, {"variant": "R40G", "abundance fitness": "-0.372 ± 0.037"}, {"variant": "R40N", "abundance fitness": "-0.165 ± 0.12"}, {"variant": "R40V", "abundance fitness": "-0.396 ± 0.21"}, {"variant": "R40L", "abundance fitness": "-0.097 ± 0.12"}, {"variant": "R40A", "abundance fitness": "0.091 ± 0.035"}, {"variant": "R40E", "abundance fitness": "-0.036 ± 0.056"}, {"variant": "R40H", "abundance fitness": "-0.094 ± 0.072"}, {"variant": "I53V", "abundance fitness": "-0.025 ± 0.045"}, {"variant": "I53G", "abundance fitness": "-0.363 ± 0.13"}, {"variant": "I53T", "abundance fitness": "-0.082 ± 0.058"}, {"variant": "A28V", "abundance fitness": "-0.098 ± 0.032"}, {"variant": "L9Q", "abundance fitness": "-0.697 ± 0.23"}, {"variant": "L9V", "abundance fitness": "-0.301 ± 0.36"}, {"variant": "L9S", "abundance fitness": "-0.66 ± 0.1"}, {"variant": "L9M", "abundance fitness": "-0.145 ± 0.043"}, {"variant": "L9K", "abundance fitness": "-0.194 ± 0.051"}, {"variant": "L9T", "abundance fitness": "0.03 ± 0.13"}, {"variant": "L9N", "abundance fitness": "-0.826 ± 0.062"}, {"variant": "L9I", "abundance fitness": "0.045 ± 0.039"}, {"variant": "L9H", "abundance fitness": "-0.915 ± 0.47"}, {"variant": "Y32R", "abundance fitness": "-0.055 ± 0.055"}, {"variant": "Y32N", "abundance fitness": "-0.114 ± 0.072"}, {"variant": "Y32S", "abundance fitness": "-0.14 ± 0.031"}, {"variant": "Y32H", "abundance fitness": "-0.052 ± 0.063"}, {"variant": "E7N", "abundance fitness": "-0.118 ± 0.042"}, {"variant": "E7G", "abundance fitness": "-1.05 ± 0.21"}, {"variant": "E7Y", "abundance fitness": "-0.589 ± 0.036"}, {"variant": "E7C", "abundance fitness": "-0.493 ± 0.11"}, {"variant": "E7S", "abundance fitness": "-0.497 ± 0.095"}, {"variant": "E7W", "abundance fitness": "-0.275 ± 0.21"}, {"variant": "S12P", "abundance fitness": "-0.486 ± 0.18"}, {"variant": "S12R", "abundance fitness": "-0.511 ± 0.057"}, {"variant": "S12I", "abundance fitness": "0.042 ± 0.04"}, {"variant": "S12V", "abundance fitness": "0.095 ± 0.049"}, {"variant": "S65T", "abundance fitness": "0.062 ± 0.03"}, {"variant": "S65E", "abundance fitness": "0.175 ± 0.053"}, {"variant": "S65H", "abundance fitness": "-0.084 ± 0.08"}, {"variant": "S65G", "abundance fitness": "-0.003 ± 0.039"}, {"variant": "G64P", "abundance fitness": "0.168 ± 0.03"}, {"variant": "G64K", "abundance fitness": "0.031 ± 0.069"}, {"variant": "G64V", "abundance fitness": "0.154 ± 0.054"}, {"variant": "G64Y", "abundance fitness": "-0.051 ± 0.081"}, {"variant": "G64D", "abundance fitness": "-0.013 ± 0.21"}, {"variant": "N38E", "abundance fitness": "-0.061 ± 0.14"}, {"variant": "N38Q", "abundance fitness": "-0.058 ± 0.1"}, {"variant": "N38T", "abundance fitness": "0.109 ± 0.14"}, {"variant": "N38V", "abundance fitness": "0.047 ± 0.085"}, {"variant": "N38I", "abundance fitness": "-0.162 ± 0.34"}, {"variant": "N38D", "abundance fitness": "-0.632 ± 0.23"}, {"variant": "T60V", "abundance fitness": "-0.038 ± 0.055"}, {"variant": "S44Q", "abundance fitness": "-0.072 ± 0.046"}, {"variant": "S44A", "abundance fitness": "0.324 ± 0.2"}, {"variant": "L45T", "abundance fitness": "-0.63 ± 0.062"}, {"variant": "L45W", "abundance fitness": "-0.125 ± 0.092"}, {"variant": "L45N", "abundance fitness": "-0.897 ± 0.42"}, {"variant": "L45R", "abundance fitness": "-0.915 ± 0.11"}, {"variant": "A26K", "abundance fitness": "0.07 ± 0.049"}, {"variant": "A26E", "abundance fitness": "-0.252 ± 0.21"}, {"variant": "A26C", "abundance fitness": "-0.14 ± 0.064"}, {"variant": "A26T", "abundance fitness": "-0.106 ± 0.062"}, {"variant": "A26I", "abundance fitness": "-0.171 ± 0.035"}, {"variant": "T6Y", "abundance fitness": "-0.298 ± 0.19"}, {"variant": "T6D", "abundance fitness": "-0.299 ± 0.21"}, {"variant": "T6P", "abundance fitness": "-1.24 ± 0.14"}, {"variant": "T6M", "abundance fitness": "-0.098 ± 0.061"}, {"variant": "T6N", "abundance fitness": "-0.031 ± 0.097"}, {"variant": "T6Q", "abundance fitness": "-0.002 ± 0.15"}, {"variant": "T6K", "abundance fitness": "0.092 ± 0.066"}, {"variant": "T6L", "abundance fitness": "-0.222 ± 0.056"}, {"variant": "K3Y", "abundance fitness": "-0.717 ± 0.17"}, {"variant": "K3M", "abundance fitness": "-0.583 ± 0.054"}, {"variant": "K3N", "abundance fitness": "-0.139 ± 0.13"}, {"variant": "K3W", "abundance fitness": "-0.691 ± 0.042"}, {"variant": "K3S", "abundance fitness": "-0.297 ± 0.092"}, {"variant": "K3E", "abundance fitness": "0.001 ± 0.05"}, {"variant": "K3G", "abundance fitness": "-0.45 ± 0.035"}, {"variant": "A62N", "abundance fitness": "0.073 ± 0.045"}, {"variant": "A62K", "abundance fitness": "0.054 ± 0.026"}, {"variant": "L54I", "abundance fitness": "0.197 ± 0.094"}, {"variant": "L54R", "abundance fitness": "0.168 ± 0.25"}, {"variant": "L54S", "abundance fitness": "-0.047 ± 0.11"}, {"variant": "L54V", "abundance fitness": "0.158 ± 0.14"}, {"variant": "L54H", "abundance fitness": "-0.325 ± 0.12"}, {"variant": "L23D", "abundance fitness": "-1.22 ± 0.27"}, {"variant": "L23R", "abundance fitness": "-0.942 ± 0.089"}, {"variant": "L23F", "abundance fitness": "-0.197 ± 0.038"}, {"variant": "L23A", "abundance fitness": "-0.384 ± 0.094"}, {"variant": "L23E", "abundance fitness": "-0.47 ± 0.14"}, {"variant": "K67R", "abundance fitness": "-0.035 ± 0.039"}, {"variant": "K67L", "abundance fitness": "-0.158 ± 0.037"}, {"variant": "K67F", "abundance fitness": "0.06 ± 0.059"}, {"variant": "K67W", "abundance fitness": "-0.246 ± 0.051"}, {"variant": "A8K", "abundance fitness": "-0.411 ± 0.076"}, {"variant": "A8S", "abundance fitness": "-0.42 ± 0.055"}, {"variant": "A8L", "abundance fitness": "-0.275 ± 0.027"}, {"variant": "A8M", "abundance fitness": "-0.163 ± 0.038"}, {"variant": "A8C", "abundance fitness": "-0.137 ± 0.056"}, {"variant": "A8W", "abundance fitness": "-0.026 ± 0.05"}, {"variant": "A8G", "abundance fitness": "-0.522 ± 0.053"}, {"variant": "A8E", "abundance fitness": "-0.719 ± 0.13"}, {"variant": "G59A", "abundance fitness": "-0.148 ± 0.04"}, {"variant": "G59C", "abundance fitness": "-0.015 ± 0.068"}, {"variant": "G59F", "abundance fitness": "-0.074 ± 0.058"}, {"variant": "G59H", "abundance fitness": "-0.13 ± 0.049"}, {"variant": "I5E", "abundance fitness": "-1.13 ± 0.24"}, {"variant": "I5A", "abundance fitness": "-0.705 ± 0.11"}, {"variant": "I5V", "abundance fitness": "-0.267 ± 0.049"}, {"variant": "S69C", "abundance fitness": "-0.246 ± 0.054"}, {"variant": "S69K", "abundance fitness": "-0.012 ± 0.095"}, {"variant": "S69T", "abundance fitness": "-0.029 ± 0.044"}, {"variant": "S69W", "abundance fitness": "0.173 ± 0.05"}, {"variant": "S69M", "abundance fitness": "-0.186 ± 0.058"}, {"variant": "S69V", "abundance fitness": "-0.093 ± 0.056"}]}]}
